Data set [1] has as its system RECQL1 WT (human). Description: EMSA. The conditions noted are these: EMSA: 20 mM Tris pH 7.4, 10 mM KCl, 5 mM MgCl2, 10% glycerol, 80 ng/ul BSA, with or without 5 mM ATPgS, 0.5 nM DNA; competition at 37 C (8 min, then 7 min with …). In general terms: Mobility shift assays separate free from complexed probe on a gel.
The subject of data set [2] is RECQL1-A459S (human). Nature of the data set: EMSA. The conditions noted are these: EMSA: 20 mM Tris pH 7.4, 10 mM KCl, 5 mM MgCl2, 10% glycerol, 80 ng/ul BSA, with or without 5 mM ATPgS, 0.5 nM DNA; competition at 37 C (8 min, then 7 min with …).
Data set [3] deals with RECQL1 WT (human). Nature of the data set: EMSA. Particulars: EMSA: 20 mM Tris pH 7.4, 10 mM KCl, 5 mM MgCl2, 10% glycerol, 80 ng/ul BSA, with or without 5 mM ATPgS, 0.5 nM DNA; competition at 37 C (8 min, then 7 min with …). The source holds these as a separate data set.
Data set [4] deals with RECQL1-A459S (human). Description: EMSA. The conditions noted are these: EMSA: 20 mM Tris pH 7.4, 10 mM KCl, 5 mM MgCl2, 10% glycerol, 80 ng/ul BSA, with or without 5 mM ATPgS, 0.5 nM DNA; competition at 37 C (8 min, then 7 min with …). This is another data set of the same source.
Data set [5] concerns the molecule itself. Nature of the data set: SEC; size exclusion chromatography of the purified recombinant protein in the absence of ATP. (Size exclusion chromatography separates by hydrodynamic size, large species first.)

Substitutions are numbered along the chain they refer to. Names and notes keep the numbering of the source.

In the case of 19 bp forked duplex, the Kd in the data set on RECQL1 WT (human) [1] is 5.39 nM?; with RECQL1-A459S (human) [2], 7.69 nM?; with RECQL1 WT (human) [3], 2.94 nM?; in the data set with RECQL1-A459S (human) [4] it was 4.74 nM?.

B1: recombinant human WT RECQL1 (enzyme, UniProt P46063 1-649, looked up)
chain: MASVSALTEELDSITSELHAVEIQIQELTERQQELIQKKKVLTKKIKQCLEDSDAGASNEYDSSPAAWNKEDFPWSGKVKDILQNVFKLEKFRPLQLETINVTMAGKEVFLVMPTGGGKSLCYQLPALCSDGFTLVICPLISLMEDQLMVLKQLGISATMLNASSSKEHVKWVHAEMVNKNSELKLIYVTPEKIAKSKMFMSRLEKAYEARRFTRIAVDEVHCCSQWGHDFRPDYKALGILKRQFPNASLIGLTATATNHVLTDAQKILCIEKCFTFTASFNRPNLYYEVRQKPSNTEDFIEDIVKLINGRYKGQSGIIYCFSQKDSEQVTVSLQNLGIHAGAYHANLEPEDKTTVHRKWSANEIQVVVATVAFGMGIDKPDVRFVIHHSMSKSMENYYQESGRAGRDDMKADCILYYGFGDIFRISSMVVMENVGQQKLYEMVSYCQNISKCRRVLMAQHFDEVWNSEACNKMCDNCCKDSAFERKNITEYCRDLIKILKQAEELNEKLTPLKLIDSWMGKGAAKLRVAGVVAPTLPREDLEKIIAHFLIQQYLKEDYSFTAYATISYLKIGPKANLLNNEAHAITMQVTKSTQNSFRAESSQTCHSEQGDKKMEEKNSGNFQKKAANMLQQSGSKNTGAKKRKIDDA
notes: RECQL1 (RECQL, RECQ1) DNA helicase, human, wild type; also called RECQ1; source: insect cells, purified to near homogeneity
For B1, in data set [5], the binding result is recorded as “binds”.

B2: recombinant human RECQL1-A459S (enzyme, UniProt P46063 1-649, looked up)
chain: B1 chain with A459S
notes: Variant found in patients (RECON syndrome); also called p.A459S mutant RECQL1; RECQL1 p.Ala459Ser; source: insect cells, purified to near homogeneity
Turning to B2, the binding result in data set [5] is on record as “binds”.

(Values after paper PMC8884905, “RECON syndrome is a genome instability disorder caused by mutations in the DNA helicase RECQL1” (The Journal of Clinical Investigation, 2022).)
